The labels stand for the following.
B1: Adagio protein 3 (Arabidopsis thaliana (Mouse-ear cress)), Q9C9W9 (parent)
chain: MAREHAIGEATGKRKKRGRVEEAEEYCNDGIEEQVEDEKLPLEVGMFYYPMTPPSFIVSDALEPDFPLIYVNRVFEVFTGYRADEVLGRNCRFLQYRDPRAQRRHPLVDPVVVSEIRRCLEEGIEFQGELLNFRKDGTPLVNRLRLAPIRDDDGTITHVIGIQVFSETTIDLDRVSYPVFKHKQQLDQTSECLFPSGSPRFKEHHEDFCGILQLSDEVLAHNILSRLTPRDVASIGSACRRLRQLTKNESVRKMVCQNAWGKEITGTLEIMTKKLRWGRLARELTTLEAVCWRKFTVGGIVQPSRCNFSACAVGNRLVLFGGEGVNMQPLDDTFVLNLDAECPEWQRVRVTSSPPGRWGHTLSCLNGSWLVVFGGCGRQGLLNDVFVLDLDAKHPTWKEVAGGTPPLPRSWHSSCTIEGSKLVVSGGCTDAGVLLSDTFLLDLTTDKPTWKEIPTSWAPPSRLGHSLSVFGRTKILMFGGLANSGHLKLRSGEAYTIDLEDEEPRWRELECSAFPGVVVPPPRLDHVAVSMPCGRVIIFGGSIAGLHSPSQLFLIDPAEEKPSWRILNVPGKPPKLAWGHSTCVVGGTRVLVLGGHTGEEWILNELHELCLASRQDSDL
partner: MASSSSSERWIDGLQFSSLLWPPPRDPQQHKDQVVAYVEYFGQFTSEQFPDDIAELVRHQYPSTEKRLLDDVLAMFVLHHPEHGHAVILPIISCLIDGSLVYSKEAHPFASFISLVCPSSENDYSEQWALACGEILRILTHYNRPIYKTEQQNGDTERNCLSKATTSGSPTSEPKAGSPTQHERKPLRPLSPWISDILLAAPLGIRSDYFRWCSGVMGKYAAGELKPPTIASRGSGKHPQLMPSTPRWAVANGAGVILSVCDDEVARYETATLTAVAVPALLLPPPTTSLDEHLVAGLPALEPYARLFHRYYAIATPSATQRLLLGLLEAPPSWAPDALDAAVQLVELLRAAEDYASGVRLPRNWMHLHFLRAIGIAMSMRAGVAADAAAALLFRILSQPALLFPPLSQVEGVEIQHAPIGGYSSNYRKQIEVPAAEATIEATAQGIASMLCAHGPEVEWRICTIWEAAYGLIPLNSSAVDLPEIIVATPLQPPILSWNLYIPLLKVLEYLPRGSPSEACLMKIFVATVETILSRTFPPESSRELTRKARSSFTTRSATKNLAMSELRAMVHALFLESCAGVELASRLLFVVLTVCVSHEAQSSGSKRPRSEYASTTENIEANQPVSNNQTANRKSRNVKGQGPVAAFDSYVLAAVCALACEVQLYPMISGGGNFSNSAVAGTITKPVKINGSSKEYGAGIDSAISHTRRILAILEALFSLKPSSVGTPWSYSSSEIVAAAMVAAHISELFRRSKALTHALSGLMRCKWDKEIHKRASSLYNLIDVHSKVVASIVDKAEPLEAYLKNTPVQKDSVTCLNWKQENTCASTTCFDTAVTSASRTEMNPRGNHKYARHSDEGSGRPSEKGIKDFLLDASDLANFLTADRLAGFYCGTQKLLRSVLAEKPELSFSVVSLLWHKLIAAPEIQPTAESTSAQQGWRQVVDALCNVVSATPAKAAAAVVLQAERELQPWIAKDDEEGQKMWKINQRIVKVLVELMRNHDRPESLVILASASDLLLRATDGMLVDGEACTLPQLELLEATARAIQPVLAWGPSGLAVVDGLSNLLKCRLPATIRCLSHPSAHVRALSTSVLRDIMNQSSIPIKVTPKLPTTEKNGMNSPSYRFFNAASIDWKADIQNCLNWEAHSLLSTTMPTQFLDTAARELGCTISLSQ

Variants of B1 are the subject of this test. The conditions noted are these: with gigan_arath GI.
For the variant C91A, the “effect of a mutation on the interaction” value is on record as “decreasing interaction”. As for R92D, the “effect of a mutation on the interaction” value is “decreasing interaction”. Regarding Q163L, the “effect of a mutation on the interaction” value is recorded as “disrupting interaction”.

The record behind these values is IntAct's records for PubMed 17872410.
